First the molecules themselves.
B1: Variant A2M, bait region SEQ ID NO 124, P01023 24-1474 (protein)
chain: SVSGKPQYMVLVPSLLHTETTEKGCVLLSYLNETVTVSASLESVRGNRSLFTDLEAENDVLHCVAFAVPKSSSNEEVMFLTVQVKGPTQEFKKRTTVMVKNEDSLVFVQTDKSIYKPGQTVKFRVVSMDENFHPLNELIPLVYIQDPKGNRIAQWQSFQLEGGLKQFSFPLSSEPFQGSYKVVVQKKSGGRTEHPFTVEEFVLPKFEVQVTVPKIITILEEEMNVSVCGLYTYGKPVPGHVTVSICRKYSDASDCHGEDSQAFCEKFSGQLNSHGCFYQQVKTKVFQLKRKEYEMKLHTEAQIQEEGTVVELTGRQSSEITRTITKLSFVKVDSHFRQGIPFFGQVRLVDGKGVPIPNKVIFIRGNEANYYSNATTDEHGLVQFSINTTNVMGTSLTVRVNYKDRSPCYGYQWVSEEHEEAHHTAYLVFSPSKSFVHLEPMSHELPCGHTQTVQAHYILNGGTLLGLKKLSFYYLIMAKGGIVRTGTHGLLVKQEDMKGHFSISIPVKSDIAPVARLLIYAVLPTGDVIGDSAKYDVENCLANKVDLSFSPSQSLPASHAHLRVTAAPQSVCALRAVDQSVLLMKPDAELSASSVYNLLPEKDLTGFPGPLNDQDDEDCINRHNVYINGITYTPVSSTNEKDMYSFLEDMGLKAFTNSKIRKPKMCPQLEQYEMHGPKEEEGLGSSELEGRGSEAIPMSIPTIPENFFGVVEEPHTKLRKYFPETWIWDLVVVNSAGVAEVGVTVPDTITEWKAGAFCLSEDAGLGISSTASLRAFQPFFVELTMPYSVIRGEAFTLKATVLNYLPKCIRVSVQLEASPAFLAVPVEKEQAPHCICANGRQTVSWAVTPKSLGNVNFTVSAEALESQELCGTEVPSVPEHGRKDTVIKPLLVEPEGLEKETTFNSLLCPSGGEVSEELSLKLPPNVVEESARASVSVLGDILGSAMQNTQNLLQMPYGCGEQNMVLFAPNIYVLDYLNETQQLTPEIKSKAIGYLNTGYQRQLNYKHYDGSYSTFGERYGRNQGNTWLTAFVLKTFAQARAYIFIDEAHITQALIWLSQRQKDNGCFRSSGSLLNNAIKGGVEDEVTLSAYITIALLEIPLTVTHPVVRNALFCLESAWKTAQEGDHGSHVYTKALLAYAFALAGNQDKRKEVLKSLNEEAVKKDNSVHWERPQKPKAPVGHFYEPQAPSAEVEMTSYVLLAYLTAQPAPTSEDLTSATNIVKWITKQQNAQGGFSSTQDTVVALHALSKYGAATFTRTGKAAQVTIQSSGTFSSKFQVDNNNRLLLQQVSLPELPGEYSMKVTGEGCVYLQTSLKYNILPEKEEFPFALGVQTLPQTCDEPKAHTSFQISLSVSYTGSRSASNMAIVDVKMVSGFIPLKPTVKMLERSNHVSRTEVSSNHVLIYLDKVSNQTLSLFFTVLQDVPVRDLKPAIVKVYDYYETDEFAIAEYNAPCSKDLGNADYKDDDDKGASHHHHHH
B2: Variant A2M, bait region SEQ ID NO 125, P01023 24-1474 (protein)
chain: SVSGKPQYMVLVPSLLHTETTEKGCVLLSYLNETVTVSASLESVRGNRSLFTDLEAENDVLHCVAFAVPKSSSNEEVMFLTVQVKGPTQEFKKRTTVMVKNEDSLVFVQTDKSIYKPGQTVKFRVVSMDENFHPLNELIPLVYIQDPKGNRIAQWQSFQLEGGLKQFSFPLSSEPFQGSYKVVVQKKSGGRTEHPFTVEEFVLPKFEVQVTVPKIITILEEEMNVSVCGLYTYGKPVPGHVTVSICRKYSDASDCHGEDSQAFCEKFSGQLNSHGCFYQQVKTKVFQLKRKEYEMKLHTEAQIQEEGTVVELTGRQSSEITRTITKLSFVKVDSHFRQGIPFFGQVRLVDGKGVPIPNKVIFIRGNEANYYSNATTDEHGLVQFSINTTNVMGTSLTVRVNYKDRSPCYGYQWVSEEHEEAHHTAYLVFSPSKSFVHLEPMSHELPCGHTQTVQAHYILNGGTLLGLKKLSFYYLIMAKGGIVRTGTHGLLVKQEDMKGHFSISIPVKSDIAPVARLLIYAVLPTGDVIGDSAKYDVENCLANKVDLSFSPSQSLPASHAHLRVTAAPQSVCALRAVDQSVLLMKPDAELSASSVYNLLPEKDLTGFPGPLNDQDDEDCINRHNVYINGITYTPVSSTNEKDMYSFLEDMGLKAFTNSKIRKPKMCPQLEQYEMHGPSELEGRGSIPENFFGVEAIPMSIPTSEDLVVQIVEEPHTKLRKYFPETWIWDLVVVNSAGVAEVGVTVPDTITEWKAGAFCLSEDAGLGISSTASLRAFQPFFVELTMPYSVIRGEAFTLKATVLNYLPKCIRVSVQLEASPAFLAVPVEKEQAPHCICANGRQTVSWAVTPKSLGNVNFTVSAEALESQELCGTEVPSVPEHGRKDTVIKPLLVEPEGLEKETTFNSLLCPSGGEVSEELSLKLPPNVVEESARASVSVLGDILGSAMQNTQNLLQMPYGCGEQNMVLFAPNIYVLDYLNETQQLTPEIKSKAIGYLNTGYQRQLNYKHYDGSYSTFGERYGRNQGNTWLTAFVLKTFAQARAYIFIDEAHITQALIWLSQRQKDNGCFRSSGSLLNNAIKGGVEDEVTLSAYITIALLEIPLTVTHPVVRNALFCLESAWKTAQEGDHGSHVYTKALLAYAFALAGNQDKRKEVLKSLNEEAVKKDNSVHWERPQKPKAPVGHFYEPQAPSAEVEMTSYVLLAYLTAQPAPTSEDLTSATNIVKWITKQQNAQGGFSSTQDTVVALHALSKYGAATFTRTGKAAQVTIQSSGTFSSKFQVDNNNRLLLQQVSLPELPGEYSMKVTGEGCVYLQTSLKYNILPEKEEFPFALGVQTLPQTCDEPKAHTSFQISLSVSYTGSRSASNMAIVDVKMVSGFIPLKPTVKMLERSNHVSRTEVSSNHVLIYLDKVSNQTLSLFFTVLQDVPVRDLKPAIVKVYDYYETDEFAIAEYNAPCSKDLGNADYKDDDDKGASHHHHHH
B3: Variant A2M, bait region SEQ ID NO 126, P01023 24-1474 (protein)
chain: SVSGKPQYMVLVPSLLHTETTEKGCVLLSYLNETVTVSASLESVRGNRSLFTDLEAENDVLHCVAFAVPKSSSNEEVMFLTVQVKGPTQEFKKRTTVMVKNEDSLVFVQTDKSIYKPGQTVKFRVVSMDENFHPLNELIPLVYIQDPKGNRIAQWQSFQLEGGLKQFSFPLSSEPFQGSYKVVVQKKSGGRTEHPFTVEEFVLPKFEVQVTVPKIITILEEEMNVSVCGLYTYGKPVPGHVTVSICRKYSDASDCHGEDSQAFCEKFSGQLNSHGCFYQQVKTKVFQLKRKEYEMKLHTEAQIQEEGTVVELTGRQSSEITRTITKLSFVKVDSHFRQGIPFFGQVRLVDGKGVPIPNKVIFIRGNEANYYSNATTDEHGLVQFSINTTNVMGTSLTVRVNYKDRSPCYGYQWVSEEHEEAHHTAYLVFSPSKSFVHLEPMSHELPCGHTQTVQAHYILNGGTLLGLKKLSFYYLIMAKGGIVRTGTHGLLVKQEDMKGHFSISIPVKSDIAPVARLLIYAVLPTGDVIGDSAKYDVENCLANKVDLSFSPSQSLPASHAHLRVTAAPQSVCALRAVDQSVLLMKPDAELSASSVYNLLPEKDLTGFPGPLNDQDDEDCINRHNVYINGITYTPVSSTNEKDMYSFLEDMGLKAFTNSKIRKPKMCPQLEQYEMHGPEGEGEGEGIPENFFGVSEDLVVQISELEGRGSVEEPHTKLRKYFPETWIWDLVVVNSAGVAEVGVTVPDTITEWKAGAFCLSEDAGLGISSTASLRAFQPFFVELTMPYSVIRGEAFTLKATVLNYLPKCIRVSVQLEASPAFLAVPVEKEQAPHCICANGRQTVSWAVTPKSLGNVNFTVSAEALESQELCGTEVPSVPEHGRKDTVIKPLLVEPEGLEKETTFNSLLCPSGGEVSEELSLKLPPNVVEESARASVSVLGDILGSAMQNTQNLLQMPYGCGEQNMVLFAPNIYVLDYLNETQQLTPEIKSKAIGYLNTGYQRQLNYKHYDGSYSTFGERYGRNQGNTWLTAFVLKTFAQARAYIFIDEAHITQALIWLSQRQKDNGCFRSSGSLLNNAIKGGVEDEVTLSAYITIALLEIPLTVTHPVVRNALFCLESAWKTAQEGDHGSHVYTKALLAYAFALAGNQDKRKEVLKSLNEEAVKKDNSVHWERPQKPKAPVGHFYEPQAPSAEVEMTSYVLLAYLTAQPAPTSEDLTSATNIVKWITKQQNAQGGFSSTQDTVVALHALSKYGAATFTRTGKAAQVTIQSSGTFSSKFQVDNNNRLLLQQVSLPELPGEYSMKVTGEGCVYLQTSLKYNILPEKEEFPFALGVQTLPQTCDEPKAHTSFQISLSVSYTGSRSASNMAIVDVKMVSGFIPLKPTVKMLERSNHVSRTEVSSNHVLIYLDKVSNQTLSLFFTVLQDVPVRDLKPAIVKVYDYYETDEFAIAEYNAPCSKDLGNADYKDDDDKGASHHHHHH
B4: Variant A2M, bait region SEQ ID NO 127, P01023 24-1474 (protein)
chain: SVSGKPQYMVLVPSLLHTETTEKGCVLLSYLNETVTVSASLESVRGNRSLFTDLEAENDVLHCVAFAVPKSSSNEEVMFLTVQVKGPTQEFKKRTTVMVKNEDSLVFVQTDKSIYKPGQTVKFRVVSMDENFHPLNELIPLVYIQDPKGNRIAQWQSFQLEGGLKQFSFPLSSEPFQGSYKVVVQKKSGGRTEHPFTVEEFVLPKFEVQVTVPKIITILEEEMNVSVCGLYTYGKPVPGHVTVSICRKYSDASDCHGEDSQAFCEKFSGQLNSHGCFYQQVKTKVFQLKRKEYEMKLHTEAQIQEEGTVVELTGRQSSEITRTITKLSFVKVDSHFRQGIPFFGQVRLVDGKGVPIPNKVIFIRGNEANYYSNATTDEHGLVQFSINTTNVMGTSLTVRVNYKDRSPCYGYQWVSEEHEEAHHTAYLVFSPSKSFVHLEPMSHELPCGHTQTVQAHYILNGGTLLGLKKLSFYYLIMAKGGIVRTGTHGLLVKQEDMKGHFSISIPVKSDIAPVARLLIYAVLPTGDVIGDSAKYDVENCLANKVDLSFSPSQSLPASHAHLRVTAAPQSVCALRAVDQSVLLMKPDAELSASSVYNLLPEKDLTGFPGPLNDQDDEDCINRHNVYINGITYTPVSSTNEKDMYSFLEDMGLKAFTNSKIRKPKMCPQLEQYEMHGPIPENFFGVSELEGRGSEAIPMSIPTEGEGEGEGVEEPHTKLRKYFPETWIWDLVVVNSAGVAEVGVTVPDTITEWKAGAFCLSEDAGLGISSTASLRAFQPFFVELTMPYSVIRGEAFTLKATVLNYLPKCIRVSVQLEASPAFLAVPVEKEQAPHCICANGRQTVSWAVTPKSLGNVNFTVSAEALESQELCGTEVPSVPEHGRKDTVIKPLLVEPEGLEKETTFNSLLCPSGGEVSEELSLKLPPNVVEESARASVSVLGDILGSAMQNTQNLLQMPYGCGEQNMVLFAPNIYVLDYLNETQQLTPEIKSKAIGYLNTGYQRQLNYKHYDGSYSTFGERYGRNQGNTWLTAFVLKTFAQARAYIFIDEAHITQALIWLSQRQKDNGCFRSSGSLLNNAIKGGVEDEVTLSAYITIALLEIPLTVTHPVVRNALFCLESAWKTAQEGDHGSHVYTKALLAYAFALAGNQDKRKEVLKSLNEEAVKKDNSVHWERPQKPKAPVGHFYEPQAPSAEVEMTSYVLLAYLTAQPAPTSEDLTSATNIVKWITKQQNAQGGFSSTQDTVVALHALSKYGAATFTRTGKAAQVTIQSSGTFSSKFQVDNNNRLLLQQVSLPELPGEYSMKVTGEGCVYLQTSLKYNILPEKEEFPFALGVQTLPQTCDEPKAHTSFQISLSVSYTGSRSASNMAIVDVKMVSGFIPLKPTVKMLERSNHVSRTEVSSNHVLIYLDKVSNQTLSLFFTVLQDVPVRDLKPAIVKVYDYYETDEFAIAEYNAPCSKDLGNADYKDDDDKGASHHHHHH

The target of this assay is Protease Mixtures. Briefly: cell-based or functional assay.
For B1, the Protease Inhibition (% of WT); Protease Mixtures, IGD Substrate is 237 % of WT.

B2: the Protease Inhibition (% of WT); Protease Mixtures, IGD Substrate was 150 % of WT.

Consider B3, for which the Protease Inhibition (% of WT); Protease Mixtures, Collagen Substrate is 250 % of WT and the Protease Inhibition (% of WT); Protease Mixtures, IGD Substrate is 229 % of WT.

Take B4: the Protease Inhibition (% of WT); Protease Mixtures, Collagen Substrate is 180 % of WT and the Protease Inhibition (% of WT); Protease Mixtures, IGD Substrate was 229 % of WT.
